# Literature values as cited in PMC12302472.
# Target: ATOX1 (Homo sapiens) (UniProt O00244)
# Experiment: SPR
# UniProt O00244, sequence (O00244 whole entry): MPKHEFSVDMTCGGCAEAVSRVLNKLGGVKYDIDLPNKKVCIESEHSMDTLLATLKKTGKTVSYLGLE
substance,measurement,value
MEMO1 (from UniProt Q9Y316),Kd,210 nM
